Measurements published in patent US20070078092A1 (CUREGENICS, published 2007).
Square brackets hold non-standard residues; d marks the D form. Ends that are not written are not given here. * marks the point of attachment. Cholesteryloxycarbonyl = CC(C)CCC[C@@H](C)[C@H]1CC[C@H]2[C@@H]3CC=C4C[C@@H](OC(=O)*)CC[C@]4(C)[C@H]3CC[C@]12C; Lithocholoyl = C[C@H](CCC(=O)*)[C@H]1CC[C@H]2[C@@H]3CC[C@@H]4C[C@H](O)CC[C@]4(C)[C@H]3CC[C@]12C; FITC = O=C1OC2(c3ccc(O)cc3Oc3cc(O)ccc32)c2ccc(NC(=S)*)cc21; Biotin = O=C1N[C@H]2[C@H](CS[C@H]2CCCCC(=O)*)N1; hLeu = CC(C)CC[C@H](N)C(=O)O; VitB6 = vitamin B6 moiety; Orn = NCCC[C@H](N)C(=O)O; Nva = CCC[C@H](N)C(=O)O; Dap = NC[C@H](N)C(=O)O

How the values were obtained:
Assay in all cases: cell-based or functional assay
protein kinase B (PKB) [1] = target: protein kinase B (PKB)
protein kinase B (PKB) [2] = target: protein kinase B (PKB); remark: listed apart in the source
protein kinase B (PKB) [3] = target: protein kinase B (PKB); remark: listed apart in the source
protein kinase A (PKA) = target: protein kinase A (PKA)
protein kinase B (PKB) [4] = target: protein kinase B (PKB); remark: listed apart in the source

| Binder | IC50, kinase assay PKB (protein kinase B (PKB) [3]) [µM] | IC50, kinase assay PKA (protein kinase A (PKA)) [µM] | further results |
| --- | --- | --- | --- |
| RQIKIWFQNRRMKWKKRPRXYAX (Nva, Hol of the 6184 part) [MPS ab60025-4] |  |  | IC50, in vitro PKB inhibition (protein kinase B (PKB) [1]): 0.2 µM; % Inhibition of PKB activity at 1 µM (protein kinase B (PKB) [2]): 80%; % Inhibition of PKB activity at 10 µM (protein kinase B (PKB) [2]): 96% |
| RPR[Nva]Y[Dap][hLeu][dK][dK][dK][dK][dK][dK][dK][dK][dK][dK]-NH2 (N-terminus assumed; SMILES CCC[C@H](NC(=O)[C@H](CCCNC(=N)N)NC(=O)[C@@H]1CCCN1C(=O)[C@@H](N)CCCNC(=N)N)C(=O)N[C@@H](Cc1ccc(O)cc1)C(=O)N[C@@H](CN)C(=O)N[C@@H](CCC(C)C)C(=O)N[C@H](CCCCN)C(=O)N[C@H](CCCCN)C(=O)N[C@H](CCCCN)C(=O)N[C@H](CCCCN)C(=O)N[C@H](CCCCN)C(=O)N[C@H](CCCCN)C(=O)N[C@H](CCCCN)C(=O)N[C@H](CCCCN)C(=O)N[C@H](CCCCN)C(=O)N[C@H](CCCCN)C(N)=O) [MPS ab60025-49] |  |  | IC50, in vitro PKB inhibition (protein kinase B (PKB) [1]): 0.04 µM; % Inhibition of PKB activity at 1 µM (protein kinase B (PKB) [2]): 97%; % Inhibition of PKB activity at 10 µM (protein kinase B (PKB) [2]): 99% |
| Biotin-RPR[Nva]Y[Dap][hLeu]-NH2 [PTR 6158] | 1 | > 100 |  |
| Lauryl-RPR[Nva]Y[Dap][hLeu]-NH2 [PTR 6160] | 8 | 50 |  |
| {S‑carbofluorescin}-RPR[Nva]Y[Dap][hLeu]-NH2 [PTR 6182] | 3 | > 10 |  |
| Lithocholoyl-GRPR[Nva]YA[hLeu]-NH2 [PTR 6192] | 2.5 | > 10 |  |
| Lithocholoyl-RPR[Nva]YA[hLeu]-NH2 (SMILES CCC[C@H](NC(=O)[C@H](CCCNC(=N)N)NC(=O)[C@@H]1CCCN1C(=O)[C@H](CCCNC(=N)N)NC(=O)CC[C@@H](C)[C@H]1CC[C@H]2[C@@H]3CC[C@@H]4C[C@H](O)CC[C@]4(C)[C@H]3CC[C@]12C)C(=O)N[C@@H](Cc1ccc(O)cc1)C(=O)N[C@@H](C)C(=O)N[C@@H](CCC(C)C)C(N)=O) [PTR 6194] | 2 | > 10 |  |
| {H‑1‑adamantyl}-RPR[Nva]YA[hLeu]-NH2 [PTR 6200] | 0.3 | > 10 |  |
| RPR[Nva]YA[hLeu]-NH2 (not fully specified (N-terminus)) [PTR 6202] | 0.3 | > 10 |  |
| {Testosterone‑yl‑O‑CO}-RPR[Nva]Y[Dap][hLeu]-NH2 [PTR 6212] | 7 |  |  |
| {Galactopyranosyl‑O‑CO}-RPR[Nva]Y[Dap][hLeu]-NH2 [PTR 6214] | 10 |  |  |
| Lithocholoyl-GRPR[Nva]Y[Dap][hLeu]-NH2 [PTR 6218] | 0.8 |  |  |
| Lithocholoyl-RPR[Nva]Y[Dap][hLeu]-NH2 [PTR 6220] | 2 |  |  |
| {Galactopyranosyl‑O‑CO}-RPR[Nva]YA[hLeu]-NH2 [PTR 6224] | 5 | 8 |  |
| {Testosterone‑yl‑O‑CO}-RPR[Nva]YA[hLeu]-NH2 [PTR 6226] | 3 |  |  |
| VitB6-RPR[Nva]YA[hLeu]-NH2 [PTR 6228] | 2 |  |  |
| VitB6-RPR[Nva]Y[Dap][hLeu] [PTR 6232] | 1 |  |  |
| {VitE‑Succinate}-RPR[Nva]YA[hLeu]-NH2 [PTR 6242] | 1 |  |  |
| {HO‑CO‑(CH2)2‑CO}-[dK][dK][dK]RPR[Nva]Y[Dap][hLeu]-NH2 [PTR 6394] |  |  | IC50, in vitro kinase assay PKB (protein kinase B (PKB) [4]): 10 µM |
| {Vitamin E‑CO‑(CH2)2‑CO}-[dK][dK][dK]RPR[Nva]Y[Dap][hLeu]-NH2 [PTR 6396] |  |  | IC50, in vitro kinase assay PKB (protein kinase B (PKB) [4]): 0.2 µM |
| Cholesteryloxycarbonyl-[dK][dK][dK][Orn]PR[Nva]Y[Dap][hLeu]-NH2 (SMILES CCC[C@H](NC(=O)[C@H](CCCNC(=N)N)NC(=O)[C@@H]1CCCN1C(=O)[C@H](CCCN)NC(=O)[C@@H](CCCCN)NC(=O)[C@@H](CCCCN)NC(=O)[C@@H](CCCCN)NC(=O)O[C@H]1CC[C@@]2(C)C(=CC[C@H]3[C@@H]4CC[C@H]([C@H](C)CCCC(C)C)[C@@]4(C)CC[C@@H]32)C1)C(=O)N[C@@H](Cc1ccc(O)cc1)C(=O)N[C@@H](CN)C(=O)N[C@@H](CCC(C)C)C(N)=O) [PTR 6398] |  |  | IC50, in vitro kinase assay PKB (protein kinase B (PKB) [4]): 0.3 µM |
| Cholesteryloxycarbonyl-[dK][dK][dK]KPR[Nva]Y[Dap][hLeu]-NH2 (SMILES CCC[C@H](NC(=O)[C@H](CCCNC(=N)N)NC(=O)[C@@H]1CCCN1C(=O)[C@H](CCCCN)NC(=O)[C@@H](CCCCN)NC(=O)[C@@H](CCCCN)NC(=O)[C@@H](CCCCN)NC(=O)O[C@H]1CC[C@@]2(C)C(=CC[C@H]3[C@@H]4CC[C@H]([C@H](C)CCCC(C)C)[C@@]4(C)CC[C@@H]32)C1)C(=O)N[C@@H](Cc1ccc(O)cc1)C(=O)N[C@@H](CN)C(=O)N[C@@H](CCC(C)C)C(N)=O) [PTR 6400] |  |  | IC50, in vitro kinase assay PKB (protein kinase B (PKB) [4]): 0.3 µM |
| Cholesteryloxycarbonyl-[dK][dK][dK]RPR[Nva]Y[Dap][hLeu]K(FITC)-NH2 (SMILES CCC[C@H](NC(=O)[C@H](CCCNC(=N)N)NC(=O)[C@@H]1CCCN1C(=O)[C@H](CCCNC(=N)N)NC(=O)[C@@H](CCCCN)NC(=O)[C@@H](CCCCN)NC(=O)[C@@H](CCCCN)NC(=O)O[C@H]1CC[C@@]2(C)C(=CC[C@H]3[C@@H]4CC[C@H]([C@H](C)CCCC(C)C)[C@@]4(C)CC[C@@H]32)C1)C(=O)N[C@@H](Cc1ccc(O)cc1)C(=O)N[C@@H](CN)C(=O)N[C@@H](CCC(C)C)C(=O)N[C@@H](CCCCNC(=S)Nc1ccc2c(c1)C(=O)OC21c2ccc(O)cc2Oc2cc(O)ccc21)C(N)=O) [PTR 6402] |  |  | IC50, in vitro kinase assay PKB (protein kinase B (PKB) [4]): 0.5 µM |
